The values below come from paper PMC4191397.

The target of data set [1] is T1, NS3h (NS3 helicase domain) (Dengue virus serotype 2 (infectious …, UniProt O09234 1646-2093)). Put plainly: competition.
Data set [2] has as its target T1, NS3h (NS3 helicase domain). Put plainly: competition. The source holds these as a separate data set.
The target in data set [3] is T1, NS3h (NS3 helicase domain). Nature of the data set: competition. The source holds these as a separate data set.
In data set [4] the target is T1, NS3h (NS3 helicase domain). Put plainly: fluorescence titration.
The target of data set [5] is T1, NS3h (NS3 helicase domain). Nature of the data set: EMSA. A general note: A gel shift assay detects complexes by their altered migration in electrophoresis.
The target of data set [6] is T1, NS3h (NS3 helicase domain). Put plainly: competition. This is another data set of the same source.

For the molecule AGUUGAGUUGAGUUG (ssRNA) [R15], in data set [1], the Ka is 7.4 ± 0.2 10^6 M-1.
AGUUGAGUUGAGUUGAGUUG (ssRNA) [R20]: the results for the Ka in data set [2] and in data set [3] were 16.7 ± 0.7 10^6 M-1 and 0.6 ± 0.1 10^6 M-1, respectively.
For AGUUGAGUUGAG (ssRNA) [F-p-R12], in data set [4], the Ka was 20.8 ± 0.5 10^6 M-1.
Consider AGTTGAGTTGAGTTGAGTTG (ssDNA) [F-p-D20], for which the binding result in data set [5] was “no binding”.
With AGUUGAGUUG (ssRNA) [R10], the Ka in data set [1] is 1.69 ± 0.04 10^6 M-1.
In the case of AGUUGAGUUGAG (ssRNA) [R12], the Ka in data set [1] is 2.64 ± 0.06 10^6 M-1.
As for UUUUUUUUUUUU (ssRNA) [(U)12], the binding result in data set [6] is recorded as “no binding”.
AGUUGAGUUG (ssRNA) [F-p-R10]: the Ka in data set [4] is 11.3 ± 0.1 10^6 M-1.
On to AGUUGAGUUGAGUUGAGU (ssRNA) [R18], for which the Ka in data set [1] is 11.5 ± 0.3 10^6 M-1.
